Here are results for one molecule from PMC4897735, “Acousto-microfluidics for screening of ssDNA aptamer”.

This data set deals with prostate-specific antigen (PSA) (UniProt P07288 25-261). The experiment in a line: SPR; AS2 3-50 nM, 2 mM MgCl2; SPR (Biacore CM5): PBS pH 7.4, 2 mM MgCl2 (PBSM), 25 °C, 15 µl/min, blank flow cell reference. As to conditions: protein: commercial. In general terms: SPR reads the build-up and loss of mass on a sensor chip optically.
prostate-specific antigen (PSA), sequence (P07288 25-261): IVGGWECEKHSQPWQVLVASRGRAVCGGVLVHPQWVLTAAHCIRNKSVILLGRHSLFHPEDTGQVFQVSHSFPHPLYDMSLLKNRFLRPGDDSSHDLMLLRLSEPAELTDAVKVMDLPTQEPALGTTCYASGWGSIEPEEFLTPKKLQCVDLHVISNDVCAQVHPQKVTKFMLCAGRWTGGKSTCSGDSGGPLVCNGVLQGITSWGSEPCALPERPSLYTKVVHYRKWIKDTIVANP

B1: AS2 (ssDNA)
DNA: GGGCGGGGCGGACGAGACAGTAAGGGCTGTGGGTGTGGTG
B1: binding was characterised by a dissociation constant (Kd) of 0.7 nM.
